Laboratory results published in the supplement of paper PMC7877785.
± gives the uncertainty stated by the source.

Assay: self-splicing fitness, log relative to wild type (ln ratio); higher = more splicing; Tetrahymena group I intron in knt gene, E. coli kanamycin selection, DiMSum; sequences stand for … in CUCUCU…GGAGGGAAAAGUUAUCAGGCAUGCACCUGGUAGCUAGUCUUUAAACCAAUAGAUUGCAUCGGUUUAAAAGGCAAGACCGUCAAAUUGCGGGAAAGGGGUCAACAGCCGUUCAGUACCAAGUCUCAGGGGAAACUUUGAGAUGGCCUUGCAAAGGGUAUGGUAAUAAGCUGACGGACAUGGUCCUAACCACGCAGCCAAGUCCUAAGUCAACAGAUCUUCUGUUGAUAUGGAUGCAGUUCACAGACUAAAUGUCGGUCGGGGAAGAUGUAUUCUUCUCAUAAGAUAUAGUCGGACCUCUCCUUAAUGGGAGCUAGCGGAUGAAGUGAUGCAACACUGGAGCCGCUGGGAACUAAUUUGUAUGCGAAAGUAUAUUGAUUAGUUUUGGAGUACUCGUGGUCG
Outline: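 Library with all eight P1ex-region intron nucleotides randomised, intron inside the knt kanamycin-resistance gene on pET-22b(+), in E. coli BL21(DE3). Cells grew overnight at 37°C or 30°C on LB agar with or without 25 μg/mL kanamycin (plus 100 μg/mL carbenicillin, 50 μM IPTG, 0.2% rhamnose), in six replicate transformations. Pooled colonies were amplicon-sequenced on Illumina HiSeq 2500. DiMSum fitness is the error-weighted combination of wild-type-normalised replicate fold changes, kanamycin versus none.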

Row | Sequence | self-splicing fitness (ln) (30 °C) | self-splicing fitness (ln) (37 °C)
1 | AAUUAGCAAUAUUACGGGAA | -1.88 ± 0.32 | -1.88 ± 0.3
2 | ACUUAGCAAUAUUACGUCUU | -0.647 ± 0.084 | -4.56e-06 ± 0.099
3 | UUCCAGCAAUAUUACGCGGC | -3.73 ± 0.47 | -1.38 ± 0.4
4 | GGUGAGCAAUAUUACGAUGU | -2.19 ± 0.15 | -1.69 ± 0.23
5 | ACUCAGCAAUAUUACGCAGG | -1.99 ± 0.11 | -1.35 ± 0.13
6 | GACUAGCAAUAUUACGUAGC | -2.47 ± 0.11 | -1.4 ± 0.1
7 | GCUCAGCAAUAUUACGGGGG | -3.18 ± 0.17 | -1.92 ± 0.16
8 | CGACAGCAAUAUUACGGUCC | -1.13 ± 0.11 | -0.69 ± 0.14
9 | GCUCAGCAAUAUUACGACAC | -0.687 ± 0.098 | 0.564 ± 0.15
10 | UGGCAGCAAUAUUACGACAA | -0.602 ± 0.14 | -0.308 ± 0.16
11 | CUGAAGCAAUAUUACGAGUU | -4 ± 0.23 | -3.47 ± 0.19
12 | CCGAAGCAAUAUUACGGACU | -2.33 ± 0.32 | -2.2 ± 0.34
13 | CGGCAGCAAUAUUACGGCCU | -1.23 ± 0.092 | -0.41 ± 0.088
14 | UAUCAGCAAUAUUACGGUUC | -2.42 ± 0.14 | 0.223 ± 0.12
15 | AGCAAGCAAUAUUACGCUUU | -2.23 ± 0.17 | -1.55 ± 0.12
16 | AGGAAGCAAUAUUACGGGAA | -2.67 ± 0.25 | -2.08 ± 0.26
17 | UAGAAGCAAUAUUACGAUAC | -2.87 ± 0.32 | -2.46 ± 0.27
18 | UCGCAGCAAUAUUACGCGAA | -1.65 ± 0.23 | -2.45 ± 0.25
19 | GCGGAGCAAUAUUACGCAUG |  | -2.8 ± 0.44
20 | AACAAGCAAUAUUACGCGUA | -1.13 ± 0.067 | -0.921 ± 0.078
21 | GCAGAGCAAUAUUACGCUUC | -3.9 ± 0.27 | -2.22 ± 0.2
22 | GGUGAGCAAUAUUACGGAGG | -1.6 ± 0.27 | 
23 | AACGAGCAAUAUUACGAUUC |  | 0.32 ± 0.17
24 | UUCAAGCAAUAUUACGUUGC |  | -3.55 ± 0.46
25 | GGACAGCAAUAUUACGCCUA | -0.825 ± 0.11 | -0.478 ± 0.11

Row | Sequence | self-splicing fitness (ln) (30 °C) | self-splicing fitness (ln) (37 °C)
26 | CUCUAGCAAUAUUACGGGUG | -1.57 ± 0.092 | -0.947 ± 0.1
27 | GUACAGCAAUAUUACGGUUU | -0.599 ± 0.044 | -0.0338 ± 0.06
28 | ACGAAGCAAUAUUACGCUUC | -3.44 ± 0.19 | -2.59 ± 0.2
29 | ACGUAGCAAUAUUACGAAGG | -2.19 ± 0.21 | -3.97 ± 0.46
30 | ACGUAGCAAUAUUACGUUCU | -2.3 ± 0.097 | -0.807 ± 0.076
31 | ACCCAGCAAUAUUACGGAUC | -2.82 ± 0.085 | -1.16 ± 0.089
32 | CAAGAGCAAUAUUACGGUAU | -4.27 ± 0.22 | -2.63 ± 0.21
33 | GUUGAGCAAUAUUACGCGCG | -1.82 ± 0.21 | -1.51 ± 0.23
34 | AGUCAGCAAUAUUACGCCCC | 0.28 ± 0.17 | 0.672 ± 0.33
35 | AGACAGCAAUAUUACGGCUU | -0.243 ± 0.094 | 0.564 ± 0.14
36 | UUUGAGCAAUAUUACGUCUU | -3.77 ± 0.32 | -3.16 ± 0.43
37 | CUACAGCAAUAUUACGUCAG | -1.55 ± 0.12 | -1.18 ± 0.13
38 | CCAAAGCAAUAUUACGGAAC |  | -2.53 ± 0.36
39 | CCUGAGCAAUAUUACGACAU | -3.785 ± 0.027 | -2.87 ± 0.042
40 | AGCAAGCAAUAUUACGCAAG | -2.4 ± 0.2 | -2.11 ± 0.26
41 | UGGAAGCAAUAUUACGGAGG | -2.93 ± 0.27 | -0.696 ± 0.15
42 | GUGGAGCAAUAUUACGACGU | -1.15 ± 0.14 | 0.0174 ± 0.16
43 | CAUAAGCAAUAUUACGGCAC | -2.85 ± 0.22 | -2.59 ± 0.21
44 | ACGCAGCAAUAUUACGUUAG | -4.1 ± 0.16 | -2.46 ± 0.12
45 | GAAAAGCAAUAUUACGAUAU | -1.15 ± 0.071 | -0.354 ± 0.093
46 | CAUAAGCAAUAUUACGAUGC | -3.14 ± 0.19 | -2.34 ± 0.28
47 | AACUAGCAAUAUUACGGAGU | -2.95 ± 0.13 | -1.42 ± 0.13
48 | CAUCAGCAAUAUUACGUAGC | -3.39 ± 0.21 | -1.98 ± 0.19
49 | CUUGAGCAAUAUUACGACAC |  | -3.08 ± 0.47
